Columns and labels:
[1] = B7H3 IHC of 4T1 B7H3-WT tumours; details: glycan changed form; control: PBS
[2] = flow cytometry of cell-surface B7H3, 4T1-B7H3KO; details: glycan lost; control: B7H3-WT
[3] = CHX chase, remaining B7H3 by immunoblot (half-life); details: glycan lost
[4] = flow cytometry of cell-surface B7H3; details: glycan lost
[5] = IP of B7H3-WT-Flag, ubiquitin immunoblot; details: glycan lost; control: untreated
[6] = flow cytometry of cell-surface B7H3, MDA-MB-231; details: glycan changed form; control: untreated
[7] = immunoblot, MDA-MB-231 and HCC1806; details: glycan changed form; control: control sgRNA
[8] = flow cytometry of cell-surface B7H3, B7H3-WT cells; details: glycan changed form; control: control sgRNA

B1: mouse B7H3: 2F-Fuc (protein)
parent chain: MLRGWGGPSVGVCVRTALGVLCLCLTGAVEVQVSEDPVVALVDTDATLRCSFSPEPGFSLAQLNLIWQLTDTKQLVHSFTEGRDQGSAYSNRTALFPDLLVQGNASLRLQRVRVTDEGSYTCFVSIQDFDSAAVSLQVAAPYSKPSMTLEPNKDLRPGNMVTITCSSYQGYPEAEVFWKDGQGVPLTGNVTTSQMANERGLFDVHSVLRVVLGANGTYSCLVRNPVLQQDAHGSVTITGQPLTFPPEALWVTVGLSVCLVVLLVALAFVCWRKIKQSCEEENAGAEDQDGDGEGSKTALRPLKPSENKEDDGQEIA
- expression_or_secretion [1]: decreases

B2: mouse B7H3: B7H3-4NQ (protein)
parent chain: B1 parent chain
- localisation_or_trafficking [2]: abolishes

B3: B7H3: tunicamycin (TM) (protein)
parent chain: MLRRRGSPGMGVHVGAALGALWFCLTGALEVQVPEDPVVALVGTDATLCCSFSPEPGFSLAQLNLIWQLTDTKQLVHSFAEGQDQGSAYANRTALFPDLLAQGNASLRLQRVRVADEGSFTCFVSIRDFGSAAVSLQVAAPYSKPSMTLEPNKDLRPGDTVTITCSSYQGYPEAEVFWQDGQGVPLTGNVTTSQMANEQGLFDVHSILRVVLGANGTYSCLVRNPVLQQDAHSSVTITPQRSPTGAVEVQVPEDPVVALVGTDATLRCSFSPEPGFSLAQLNLIWQLTDTKQLVHSFTEGRDQGSAYANRTALFPDLLAQGNASLRLQRVRVADEGSFTCFVSIRDFGSAAVSLQVAAPYSKPSMTLEPNKDLRPGDTVTITCSSYRGYPEAEVFWQDGQGVPLTGNVTTSQMANEQGLFDVHSVLRVVLGANGTYSCLVRNPVLQQDAHGSVTITGQPMTFPPEALWVTVGLSVCLIALLVALAFVCWRKIKQSCEEENAGAEDQDGEGEGSKTALQPLKHSDSKEDDGQEIA
- degradation_or_half_life ([3]; control: untreated): decreases
- localisation_or_trafficking ([4]; control: untreated): decreases
- other: K48 ubiquitination [5]: increases

B4: B7H3: B7H3-8NQ (protein)
parent chain: B3 parent chain
- degradation_or_half_life ([3]; control: B7H3-WT): decreases
- localisation_or_trafficking ([4]; control: B7H3-WT): abolishes

B5: B7H3: 2F-Fuc (protein)
parent chain: B3 parent chain
- localisation_or_trafficking [6]: decreases

B6: B7H3: FUT8 knockout (protein)
parent chain: B3 parent chain
- expression_or_secretion [7]: decreases
- localisation_or_trafficking [8]: decreases

— PMC8113546
